This is an account of results in the Immune Epitope Database (IEDB).

Broadly, the Kd is the equilibrium constant for the complex coming apart. One may read the IC50 as the concentration that gives 50% inhibition. Higher therefore signals lower potency.

In assay [1] the target is HLA-A*02:03. Kind of assay: IEDB peptide-MHC binding, purified MHC/competitive/radioactivity; filed as Kd, often an IC50 or EC50 that approximates it; ≥ and ≤ were set here for values at or beyond the usual limits of such assays. The conditions noted are these: source organism: Dengue virus 1 Brazil/97-11/1997.
Assay [2] addresses HLA-B*08:01. The assay is described as above.
In assay [3] the target is HLA-A*02:01. Kind of assay: IEDB peptide-MHC binding, purified MHC/competitive/fluorescence; ≥ and ≤ were set here for values at or beyond the usual limits of such assays.
In assay [4] the target is HLA-A*30:01. Kind of assay: IEDB peptide-MHC binding, purified MHC/competitive/radioactivity; filed as Kd, often an IC50 or EC50 that approximates it; ≥ and ≤ were set here for values at or beyond the usual limits of such assays.
Assay [5] deals with HLA-A*01:01. The description is as above. The conditions noted are these: source organism: SARS coronavirus Tor2.
Assay [6] deals with HLA-A*23:01. The assay is described as above.
Assay [7] addresses HLA-A*24:02. The assay is described as above.
Assay [8] concerns the target HLA-A*26:01. Described as above. The conditions noted are these: source organism: SARS coronavirus Tor2.
Assay [9] concerns the target HLA-A*29:02. The description is as above.
For assay [10], the target named is HLA-A*30:02. The assay is described as above. The settings on record: source organism: SARS coronavirus Tor2.
For assay [11], the target named is HLA-A*11:01. The description is as above.
For assay [12], the target named is HLA-A*03:01. Described as above. The settings on record: source organism: Vaccinia virus WR.
In assay [13] the target is HLA-A*31:01. The assay is described as above. The conditions noted are these: source organism: Vaccinia virus WR.
Assay [14] addresses HLA-A*33:01. The description is as above. The conditions noted are these: source organism: Vaccinia virus WR.
The target in assay [15] is HLA-A*68:01. The description is as above. The settings on record: source organism: Vaccinia virus WR.
[16] abbreviates: source organism: Dengue virus 1 Brazil/97-11/1997.
Setting [17] is: source organism: Vaccinia virus WR.
[18] abbreviates: source organism: Dengue virus 4 Philippines/H241/1956.
Where [19] appears, read: source organism: SARS coronavirus Tor2.
Where [20] appears, read: source organism: Zaire ebolavirus.
Where [21] appears, read: source organism: Dengue virus 3 Martinique/1243/1999.
[22] abbreviates: source organism: Mammarenavirus brazilense.

In the case of LLKATLLAV, the results for the Kd in [1] and in [2] (setting [16]) were 30 pM and 0.0127 µM, respectively.

In assay [3] (source organism: Sudan ebolavirus), IIGTNGNHM yielded a concentration for half-maximal inhibition (IC50) of at least 144 µM.

With KALSKLISK, the Kd in assay [4] (setting [17]) was found to be 0.07 µM.

Take VMKRYSAPFE: the Kd in assay [4] (setting [18]) was 5.92 µM.

In the case of NYFKKVDGI, the Kd was at least 51.7 µM in [5]; 11.6 µM in assay [6] (setting [19]); at least 20.3 µM in [7] (setting [19]); at least 77.9 µM in [8]; 2.53 µM in assay [9] (setting [19]); 11.8 µM in assay [10].

For the sequence MQKCYFSYK, in [4] (setting [17]), the Kd turned out to be 0.000527 µM.

For RTYSSSIIA, the Kd in assay [4] (setting [17]) turned out to be 0.0498 µM.

Turning to RMYIFFASF, the Kd in assay [5] is at least 20.9 µM; in [6] (setting [19]) it was 0.0753 µM; in [7] (setting [19]), 0.106 µM; in [8] it was 7.04 µM; in assay [9] (setting [19]) it was 2.1 µM; in assay [10], 1.24 µM.

As for YSHGDIKAS, the IC50 in assay [3] (setting [17]) was at least 72 µM.

On to GKLGLITNT, for which the IC50 in [3] (setting [20]) is at least 231 µM.

For MFKKRNLTI, the Kd in assay [6] (setting [21]) worked out at 0.475 µM; in assay [7] (setting [21]), 0.158 µM; in assay [4] (setting [21]), 0.143 µM; in [2] (setting [21]), 0.0157 µM.

Sequence LARTAKVKN showed an IC50 in assay [3] (setting [20]) of at least 213 µM.

In the case of ISAGFSLWIY, the Kd in assay [5] is 0.0523 µM; in assay [6] (setting [19]), at least 28.8 µM; in assay [7] (setting [19]), at least 70.3 µM; in assay [8], 1.09 µM; in [9] (setting [19]), 0.0023 µM; in assay [10], 0.00964 µM.

Turning to KTHTLWSNG, the dissociation constant Kd in assay [4] (setting [18]) stood at 0.0814 µM.

With SALYSYASA, the equilibrium dissociation constant (Kd) in assay [4] (setting [17]) was 0.0367 µM.

Regarding PTLVPQEHY, the Kd in assay [5] is 9.07 µM; in [6] (setting [19]) it was at least 77.8 µM; in assay [7] (setting [19]), at least 77.6 µM; in [8], at least 102 µM; in [9] (setting [19]) it was 10.9 µM; in assay [10], 4.51 µM.

As for RYNLDPDSI, the Kd in assay [6] (setting [22]) was 7.49 µM; in assay [7] (setting [22]), 17.7 µM; in assay [9] (setting [22]) it was at least 34.1 µM.

As for NSGPDDQIGY, the Kd was 1.01 µM in assay [5]; at least 70 µM in [6] (setting [19]); at least 33.7 µM in assay [7] (setting [19]); 8.42 µM in assay [8]; 7.38 µM in [9] (setting [19]); 6.79 µM in assay [10].

As for MVLLTMKEK, the results for the Kd in assay [11] (setting [16]) and in assay [4] (setting [16]) were 0.366 µM and 2.78 µM, respectively.

In the case of RARFIGGYI, the equilibrium dissociation constant (Kd) in assay [4] (setting [17]) came out at 0.000263 µM.

For KTLDISSFY, the Kd is 0.019 µM in [12]; 0.00646 µM in assay [11] (setting [17]); 0.0233 µM in assay [4] (setting [17]); 0.0883 µM in assay [13]; at least 41.9 µM in assay [14]; 0.187 µM in assay [15].

The sequence VLLNAPSEA returned an IC50 in [3] (source organism: Human alphaherpesvirus 1 strain 17) of 0.019 µM.

The sequence DLVLFDLDE had an IC50 in assay [3] (setting [20]) of at least 425 µM.

On to FYLYLTFYF, for which the Kd in assay [5] was 3.69 µM; in assay [6] (setting [19]), at least 29.3 µM; in assay [7] (setting [19]) it was at least 77.6 µM; in assay [8], 2.05 µM; in [9] (setting [19]) it was at least 75 µM; in assay [10] it was at least 96.8 µM.

Turning to SGALWDVPSP, the equilibrium dissociation constant (Kd) in [4] (setting [18]) came to 11 µM.

On to HLKNSAENK, for which, in assay [4] (setting [17]), the dissociation constant Kd came out at 0.861 µM.

For TVRDGQLEV, the Kd in assay [4] (setting [17]) was 0.0128 µM.

In the case of SISIKLTDS, the IC50 in assay [3] (source organism: Vaccinia virus Copenhagen) is at least 107 µM.

As for VYHITVSQI, the Kd in assay [5] is at least 31.3 µM; in assay [6] (setting [19]) it was 0.098 µM; in assay [7] (setting [19]), 0.0266 µM; in [8], at least 77.9 µM; in assay [9] (setting [19]) it was at least 28.9 µM; in assay [10] it was at least 81.1 µM.

The sequence FGTNETEYL returned an IC50 in assay [3] (setting [20]) of 27.4 µM.

In the case of DYLVSTQEF, the Kd was at least 78.1 µM in [5]; 18.8 µM in assay [6] (setting [19]); at least 43.9 µM in assay [7] (setting [19]); 14.5 µM in [8]; 0.259 µM in assay [9] (setting [19]); 3.35 µM in assay [10].

TFKNAHAKK: the Kd in assay [4] (setting [21]) was 0.111 µM.
